Results as given in paper PMC7004846.

Biological target: Aquifex aeolicus VF5 Wzt carbohydrate-binding domain (residues 235-395), long construct (Aquifex aeolicus VF5)
Experiment: SEC

stoichiometry N: 2
Substance: Aquifex aeolicus VF5 Wzt carbohydrate-binding domain (residues 235-395), long construct (domain or fragment)
